{
  "source": "paper PMC9482650",
  "about": "“Quantitative fragmentomics allow affinity mapping of interactomes” (Nature Communications, 2022)",
  "assay_in_all_cases": "holdup assay",
  "set-up_in_all_cases": "key: below the threshold = too weak to quantify, mostly under pKd 3.1 to 4",
  "settings_in_all_cases": "plain residues with an end cap or a label only (N-terminal biotin on a linker: ado-ado)",
  "key": {"[1]": {"biological_target": "Inadl_6, Q8NI35", "sequence (Q8NI35 1058-1167)": "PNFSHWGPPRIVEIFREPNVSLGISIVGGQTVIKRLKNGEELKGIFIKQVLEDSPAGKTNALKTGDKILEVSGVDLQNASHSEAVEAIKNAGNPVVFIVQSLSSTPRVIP"}, "[2]": {"biological_target": "LAP2, Q96RT1", "sequence (Q96RT1 other isoform, or with tags, fused parts or gaps)": "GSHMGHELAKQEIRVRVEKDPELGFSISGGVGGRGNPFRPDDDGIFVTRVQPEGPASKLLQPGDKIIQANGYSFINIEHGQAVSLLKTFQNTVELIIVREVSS"}, "[3]": {"biological_target": "T1, ARHGAP21, Q5T5U3", "T1 sequence (Q5T5U3 45-169, limits assumed, looked up)": "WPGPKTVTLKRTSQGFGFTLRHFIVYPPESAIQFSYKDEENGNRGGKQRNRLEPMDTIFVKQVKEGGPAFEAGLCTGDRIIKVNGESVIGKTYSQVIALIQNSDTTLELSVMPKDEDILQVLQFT"}, "[4]": {"biological_target": "T2, TIAM2, Q8IVF5", "T2 sequence (Q8IVF5 885-986, limits assumed, looked up)": "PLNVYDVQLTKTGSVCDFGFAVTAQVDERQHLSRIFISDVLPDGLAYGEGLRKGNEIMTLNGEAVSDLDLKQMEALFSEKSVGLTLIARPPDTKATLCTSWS"}, "[5]": {"biological_target": "GRID2IP_2, A4D2P6", "sequence (A4D2P6 272-370)": "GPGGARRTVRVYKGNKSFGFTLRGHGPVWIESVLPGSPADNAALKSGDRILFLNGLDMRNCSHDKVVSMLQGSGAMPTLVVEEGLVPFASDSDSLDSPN"}, "[6]": {"biological_target": "T3, PDZD2_2, O15018", "T3 sequence (O15018 329-429, limits assumed, looked up)": "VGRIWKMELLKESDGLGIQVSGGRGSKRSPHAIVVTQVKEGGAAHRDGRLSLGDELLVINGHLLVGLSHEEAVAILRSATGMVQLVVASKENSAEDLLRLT"}, "[7]": {"biological_target": "T4, SNTB1, Q13884", "T4 sequence (Q13884 107-205, limits assumed, looked up)": "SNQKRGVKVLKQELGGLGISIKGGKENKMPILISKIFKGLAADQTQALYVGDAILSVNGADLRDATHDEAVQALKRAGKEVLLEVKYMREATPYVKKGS"}, "[8]": {"biological_target": "FRMPD2_2, Q68DX3", "sequence (Q68DX3 944-1038)": "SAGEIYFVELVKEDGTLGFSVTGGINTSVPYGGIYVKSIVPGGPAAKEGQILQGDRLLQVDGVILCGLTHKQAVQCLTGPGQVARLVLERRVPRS"}, "[9]": {"biological_target": "PICK1, Q9NRD5", "sequence (Q9NRD5 17-115)": "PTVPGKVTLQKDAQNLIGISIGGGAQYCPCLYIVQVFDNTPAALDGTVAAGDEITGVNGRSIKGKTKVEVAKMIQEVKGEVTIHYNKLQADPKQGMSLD"}, "[10]": {"biological_target": "T5, TX1BP3, O14907", "T5 sequence (O14907 10-122, limits assumed, looked up)": "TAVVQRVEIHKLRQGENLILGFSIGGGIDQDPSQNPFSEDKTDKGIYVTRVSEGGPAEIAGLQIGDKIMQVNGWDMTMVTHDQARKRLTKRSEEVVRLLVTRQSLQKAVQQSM"}, "[11]": {"biological_target": "AHNAK1, Q09666", "sequence (Q09666 4-100)": "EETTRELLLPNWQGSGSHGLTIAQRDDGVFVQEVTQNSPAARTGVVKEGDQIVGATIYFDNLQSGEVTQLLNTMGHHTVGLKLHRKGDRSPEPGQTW"}, "[12]": {"biological_target": "SNX27, Q96L92"}, "[13]": {"biological_target": "T6, MPDZ_5, O75970", "T6 sequence (O75970 695-796, limits assumed, looked up)": "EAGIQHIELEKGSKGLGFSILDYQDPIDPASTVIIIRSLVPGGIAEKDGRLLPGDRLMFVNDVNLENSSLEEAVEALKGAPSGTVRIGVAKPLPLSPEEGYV"}, "[14]": {"biological_target": "MAGI1_2, Q96QZ7", "sequence (Q96QZ7 456-580)": "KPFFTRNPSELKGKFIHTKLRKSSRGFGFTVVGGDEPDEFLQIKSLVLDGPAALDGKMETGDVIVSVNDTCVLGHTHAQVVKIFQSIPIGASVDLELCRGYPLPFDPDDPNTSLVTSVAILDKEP"}, "[15]": {"biological_target": "GRASP, Q7Z6J2", "sequence (Q7Z6J2 96-193)": "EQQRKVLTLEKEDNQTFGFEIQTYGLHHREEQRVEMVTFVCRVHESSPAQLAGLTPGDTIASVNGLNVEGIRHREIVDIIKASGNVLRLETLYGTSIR"}, "[16]": {"biological_target": "T7, LIN7C, Q9NUP9", "T7 sequence (Q9NUP9 88-185, limits assumed, looked up)": "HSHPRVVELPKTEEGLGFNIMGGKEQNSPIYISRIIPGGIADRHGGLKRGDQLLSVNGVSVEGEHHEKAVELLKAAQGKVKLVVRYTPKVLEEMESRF"}, "[17]": {"biological_target": "DLG5_1, Q8TDM6", "sequence (Q8TDM6 617-713)": "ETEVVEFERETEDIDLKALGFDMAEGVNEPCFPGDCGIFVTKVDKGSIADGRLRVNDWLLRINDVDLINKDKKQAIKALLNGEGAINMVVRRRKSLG"}, "[18]": {"biological_target": "SCRIB_3, Q14160", "sequence (Q14160 999-1103)": "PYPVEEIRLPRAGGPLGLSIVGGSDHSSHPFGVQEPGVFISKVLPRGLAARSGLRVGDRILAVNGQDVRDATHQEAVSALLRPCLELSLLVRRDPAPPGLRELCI"}, "[19]": {"biological_target": "T8, MPDZ_10, O75970", "T8 sequence (O75970 1624-1722, limits assumed, looked up)": "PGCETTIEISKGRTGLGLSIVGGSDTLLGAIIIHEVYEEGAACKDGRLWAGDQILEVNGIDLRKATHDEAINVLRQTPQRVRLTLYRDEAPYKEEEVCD"}, "[20]": {"biological_target": "FRMPD2_1, Q68DX3", "sequence (Q68DX3 770-861)": "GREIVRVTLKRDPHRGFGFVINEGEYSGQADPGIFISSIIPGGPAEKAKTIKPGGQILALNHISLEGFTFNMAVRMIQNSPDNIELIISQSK"}, "[21]": {"biological_target": "T9, LIN7B, Q9HAP6", "T9 sequence (Q9HAP6 88-185, limits assumed, looked up)": "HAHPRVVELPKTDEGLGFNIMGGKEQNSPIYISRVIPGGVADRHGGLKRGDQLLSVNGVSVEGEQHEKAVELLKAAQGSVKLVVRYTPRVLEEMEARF"}, "[22]": {"biological_target": "LNX1_2, Q8TBB1", "sequence (Q8TBB1 371-470)": "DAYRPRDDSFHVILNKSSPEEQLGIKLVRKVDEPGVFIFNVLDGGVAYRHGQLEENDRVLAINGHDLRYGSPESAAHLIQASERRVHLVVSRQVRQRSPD"}, "[23]": {"biological_target": "T10, MPP6, Q9NZW5", "T10 sequence (Q9NZW5 125-219, limits assumed, looked up)": "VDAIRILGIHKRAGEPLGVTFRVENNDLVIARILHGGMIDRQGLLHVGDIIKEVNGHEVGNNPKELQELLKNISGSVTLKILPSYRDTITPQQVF"}, "[24]": {"biological_target": "T11, DLG3_1, Q92796", "T11 sequence (Q92796 125-227, limits assumed, looked up)": "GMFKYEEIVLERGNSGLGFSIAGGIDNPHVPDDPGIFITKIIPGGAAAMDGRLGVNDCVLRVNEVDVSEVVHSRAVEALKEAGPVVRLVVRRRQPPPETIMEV"}, "[25]": {"biological_target": "T12, GRIP1_4, Q9Y3R0", "T12 sequence (Q9Y3R0 467-571, limits assumed, looked up)": "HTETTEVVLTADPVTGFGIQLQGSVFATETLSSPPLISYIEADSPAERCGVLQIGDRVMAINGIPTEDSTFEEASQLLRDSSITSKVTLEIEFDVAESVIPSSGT"}},
  "data": [
    {"binder": "NHSSSPETTA", "note": "[TRMT13, Q9NUP7]", "values": [
      {"measurement": "pKd", "setting": "[1]", "result": "below the threshold"},
      {"measurement": "pKd", "setting": "[2]", "result": "below the threshold"},
      {"measurement": "pKd", "setting": "[3]", "result": "below the threshold"},
      {"measurement": "pKd", "setting": "[4]", "result": 4.02},
      {"measurement": "pKd", "setting": "[5]", "result": "below the threshold"},
      {"measurement": "pKd", "setting": "[6]", "result": "below the threshold"},
      {"measurement": "pKd", "setting": "[7]", "result": "below the threshold"},
      {"measurement": "pKd", "setting": "[8]", "result": "below the threshold"},
      {"measurement": "pKd", "setting": "[9]", "result": "below the threshold"},
      {"measurement": "pKd", "setting": "[10]", "result": 3.87},
      {"measurement": "pKd", "setting": "[11]", "result": "below the threshold"},
      {"measurement": "pKd", "setting": "[12]", "result": "below the threshold"},
      {"measurement": "pKd", "setting": "[13]", "result": "below the threshold"},
      {"measurement": "pKd", "setting": "[14]", "result": "below the threshold"},
      {"measurement": "pKd", "setting": "[15]", "result": "below the threshold"},
      {"measurement": "pKd", "setting": "[16]", "result": "below the threshold"},
      {"measurement": "pKd", "setting": "[17]", "result": "below the threshold"},
      {"measurement": "pKd", "setting": "[18]", "result": "below the threshold"},
      {"measurement": "pKd", "setting": "[19]", "result": "below the threshold"},
      {"measurement": "pKd", "setting": "[20]", "result": "below the threshold"},
      {"measurement": "pKd", "setting": "[21]", "result": "below the threshold"},
      {"measurement": "pKd", "setting": "[22]", "result": "below the threshold"},
      {"measurement": "pKd", "setting": "[23]", "result": "below the threshold"},
      {"measurement": "pKd", "setting": "[24]", "result": "below the threshold"},
      {"measurement": "pKd", "setting": "[25]", "result": "below the threshold"}
    ]},
    {"binder": "SAKVRTVTSV", "note": "[RASL11B, Q9BPW5]", "values": [
      {"measurement": "pKd", "setting": "[1]", "result": "below the threshold"},
      {"measurement": "pKd", "setting": "[2]", "result": 3.66},
      {"measurement": "pKd", "setting": "[3]", "result": "below the threshold"},
      {"measurement": "pKd", "setting": "[4]", "result": "below the threshold"},
      {"measurement": "pKd", "setting": "[5]", "result": 4.2},
      {"measurement": "pKd", "setting": "[6]", "result": 4.25},
      {"measurement": "pKd", "setting": "[7]", "result": 3.64},
      {"measurement": "pKd", "setting": "[8]", "result": 3.97},
      {"measurement": "pKd", "setting": "[9]", "result": "below the threshold"},
      {"measurement": "pKd", "setting": "[10]", "result": 4.53},
      {"measurement": "pKd", "setting": "[11]", "result": "below the threshold"},
      {"measurement": "pKd", "setting": "[12]", "result": 4.73},
      {"measurement": "pKd", "setting": "[13]", "result": "below the threshold"},
      {"measurement": "pKd", "setting": "[14]", "result": 5.51},
      {"measurement": "pKd", "setting": "[15]", "result": 4.54},
      {"measurement": "pKd", "setting": "[16]", "result": "below the threshold"},
      {"measurement": "pKd", "setting": "[17]", "result": "below the threshold"},
      {"measurement": "pKd", "setting": "[18]", "result": 4.33},
      {"measurement": "pKd", "setting": "[19]", "result": "below the threshold"},
      {"measurement": "pKd", "setting": "[20]", "result": "below the threshold"},
      {"measurement": "pKd", "setting": "[21]", "result": "below the threshold"},
      {"measurement": "pKd", "setting": "[22]", "result": 3.92},
      {"measurement": "pKd", "setting": "[23]", "result": "below the threshold"},
      {"measurement": "pKd", "setting": "[24]", "result": 3.84},
      {"measurement": "pKd", "setting": "[25]", "result": "below the threshold"}
    ]},
    {"binder": "PAPSSGKDYV", "note": "[CLDN1, O95832]", "values": [
      {"measurement": "pKd", "setting": "[1]", "result": "below the threshold"},
      {"measurement": "pKd", "setting": "[2]", "result": "below the threshold"},
      {"measurement": "pKd", "setting": "[3]", "result": "below the threshold"},
      {"measurement": "pKd", "setting": "[4]", "result": "below the threshold"},
      {"measurement": "pKd", "setting": "[5]", "result": "below the threshold"},
      {"measurement": "pKd", "setting": "[6]", "result": 4.59},
      {"measurement": "pKd", "setting": "[7]", "result": "below the threshold"},
      {"measurement": "pKd", "setting": "[8]", "result": "below the threshold"},
      {"measurement": "pKd", "setting": "[9]", "result": "below the threshold"},
      {"measurement": "pKd", "setting": "[10]", "result": "below the threshold"},
      {"measurement": "pKd", "setting": "[11]", "result": "below the threshold"},
      {"measurement": "pKd", "setting": "[12]", "result": 3.62},
      {"measurement": "pKd", "setting": "[13]", "result": "below the threshold"},
      {"measurement": "pKd", "setting": "[14]", "result": "below the threshold"},
      {"measurement": "pKd", "setting": "[15]", "result": "below the threshold"},
      {"measurement": "pKd", "setting": "[16]", "result": "below the threshold"},
      {"measurement": "pKd", "setting": "[17]", "result": "below the threshold"},
      {"measurement": "pKd", "setting": "[18]", "result": "below the threshold"},
      {"measurement": "pKd", "setting": "[19]", "result": "below the threshold"},
      {"measurement": "pKd", "setting": "[20]", "result": "below the threshold"},
      {"measurement": "pKd", "setting": "[21]", "result": "below the threshold"},
      {"measurement": "pKd", "setting": "[22]", "result": "below the threshold"},
      {"measurement": "pKd", "setting": "[23]", "result": 3.88},
      {"measurement": "pKd", "setting": "[24]", "result": "below the threshold"},
      {"measurement": "pKd", "setting": "[25]", "result": "below the threshold"}
    ]}
  ]
}
